This note sets out measurements from PMC4355161.

The target of this assay is 30/30 nucleosomes labeled with Cy3 on H4 A15C, P62799. The experiment in a line: other fluorescence titration.

B1: SNF2h ΔHSS (domain or fragment)
chain: MSSAAEPPPPPPPESAPSKPAASIASGGSNSSNKGGPEGVAAQAVASAASAGPADAEMEEIFDDASPGKQKEIQEPDPTYEEKMQTDRANRFEYLLKQTELFAHFIQPAAQKTPTSPLKMKPGRPRIKKDEKQNLLSVGDYRHRRTEQEEDEELLTESSKATNVCTRFEDSPSYVKWGKLRDYQVRGLNWLISLYENGINGILADEMGLGKTLQTISLLGYMKHYRNIPGPHMVLVPKSTLHNWMSEFKRWVPTLRSVCLIGDKEQRAAFVRDVLLPGEWDVCVTSYEMLIKEKSVFKKFNWRYLVIDEAHRIKNEKSKLSEIVREFKTTNRLLLTGTPLQNNLHELWSLLNFLLPDVFNSADDFDSWFDTNNCLGDQKLVERLHMVLRPFLLRRIKADVEKSLPPKKEVKIYVGLSKMQREWYTRILMKDIDILNSAGKMDKMRLLNILMQLRKCCNHPYLFDGAEPGPPYTTDMHLVTNSGKMVVLDKLLPKLKEQGSRVLIFSQMTRVLDILEDYCMWRNYEYCRLDGQTPHDERQDSINAYNEPNSTKFVFMLSTRAGGLGINLATADVVILYDSDWNPQVDLQAMDRAHRIGQTKTVRVFRFITDNTVEERIVERAEMKLRLDSIVIQQGRLVDQNLNKIGKDEMLQMIRHGATHVFASKESEITDEDIDGILERGAKKTAEMNEKLSKMGESSLRNFTMDTESSVYNFEGEDYREKQKIAFTE
modifications: not checked
Take B1: the fold decrease in affinity against wild type SNF2h was 56 fold and the fold decrease in binding against wild type SNF2h was found to be 22 fold.
